Assay results: paper PMC11785871, “D-Serine disrupts Cbln1 and GluD1 interaction and affects Cbln1-dependent synaptic effects and nocifensive responses in the central amygdala” (Cellular and Molecular Life Sciences: CMLS, 2025)

Legend:
[1] = target: GluD1 (UniProt Q9ULK0); settings: cited from earlier work
[2] = target: Neurexin (UniProt P58400); settings: cited from earlier work
[3] = target: T1, GluD1 (glutamate delta-1 receptor) (Rattus norvegicus, UniProt Q62640); assay: cell-binding assay: inhibition of rCbln1 binding to GluD1-expressing COS-7 cells; effect lost in R526K mutant; immunoblot confirmation in HEK293T; assay type: cell-based
T1 construct: gene Grid1; rat pCAGGS GluD1 plasmid expressed in COS-7 cells; with Cbln1 (recombinant, HA-tagged)
T1 sequence (Q62640 21-1009): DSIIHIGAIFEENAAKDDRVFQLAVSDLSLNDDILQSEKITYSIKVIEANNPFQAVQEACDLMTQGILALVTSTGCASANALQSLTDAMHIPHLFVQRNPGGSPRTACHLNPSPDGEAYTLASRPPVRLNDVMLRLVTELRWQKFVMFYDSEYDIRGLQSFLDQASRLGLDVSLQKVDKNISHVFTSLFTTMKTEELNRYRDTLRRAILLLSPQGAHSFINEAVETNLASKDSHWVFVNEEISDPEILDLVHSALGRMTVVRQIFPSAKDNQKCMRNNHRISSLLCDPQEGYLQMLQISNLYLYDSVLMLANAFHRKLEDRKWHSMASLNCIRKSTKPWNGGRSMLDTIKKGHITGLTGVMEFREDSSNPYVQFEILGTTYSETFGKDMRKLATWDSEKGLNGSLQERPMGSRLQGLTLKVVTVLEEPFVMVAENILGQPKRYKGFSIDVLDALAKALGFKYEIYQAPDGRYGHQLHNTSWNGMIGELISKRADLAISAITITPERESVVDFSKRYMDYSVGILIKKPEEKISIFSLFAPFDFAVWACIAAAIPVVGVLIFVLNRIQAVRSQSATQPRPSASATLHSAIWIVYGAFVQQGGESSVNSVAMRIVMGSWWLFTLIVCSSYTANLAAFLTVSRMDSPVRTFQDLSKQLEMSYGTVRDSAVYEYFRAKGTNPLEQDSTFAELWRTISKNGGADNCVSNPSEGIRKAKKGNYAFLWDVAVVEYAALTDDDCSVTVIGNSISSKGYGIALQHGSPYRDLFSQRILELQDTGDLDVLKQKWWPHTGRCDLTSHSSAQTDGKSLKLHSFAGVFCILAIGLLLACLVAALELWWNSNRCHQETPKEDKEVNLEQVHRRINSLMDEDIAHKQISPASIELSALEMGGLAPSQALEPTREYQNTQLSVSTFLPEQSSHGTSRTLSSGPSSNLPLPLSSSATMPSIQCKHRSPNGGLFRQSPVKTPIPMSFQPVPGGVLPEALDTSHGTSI
T1 sequence (P63182 22-193 partner): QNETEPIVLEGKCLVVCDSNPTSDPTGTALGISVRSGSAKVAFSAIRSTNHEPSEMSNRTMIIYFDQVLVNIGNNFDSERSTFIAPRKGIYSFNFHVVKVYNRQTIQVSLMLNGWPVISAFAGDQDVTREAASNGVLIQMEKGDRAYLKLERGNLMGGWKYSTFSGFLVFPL

Sequence of Cbln1 (P23435 22-193): as the sequence (P63182 22-193 partner) above
Sequence of GluD1 (Q9ULK0 21-436): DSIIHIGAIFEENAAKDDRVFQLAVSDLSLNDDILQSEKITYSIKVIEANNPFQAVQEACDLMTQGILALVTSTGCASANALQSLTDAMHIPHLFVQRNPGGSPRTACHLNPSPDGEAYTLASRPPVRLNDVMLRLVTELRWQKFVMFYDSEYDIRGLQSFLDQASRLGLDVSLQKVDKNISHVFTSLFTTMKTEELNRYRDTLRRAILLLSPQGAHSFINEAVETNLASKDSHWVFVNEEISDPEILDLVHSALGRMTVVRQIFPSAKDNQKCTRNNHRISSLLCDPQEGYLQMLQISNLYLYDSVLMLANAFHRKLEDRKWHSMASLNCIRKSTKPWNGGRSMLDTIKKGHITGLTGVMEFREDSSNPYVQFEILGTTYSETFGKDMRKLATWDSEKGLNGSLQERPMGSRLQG
Sequence of Neurexin (P58400 51-396): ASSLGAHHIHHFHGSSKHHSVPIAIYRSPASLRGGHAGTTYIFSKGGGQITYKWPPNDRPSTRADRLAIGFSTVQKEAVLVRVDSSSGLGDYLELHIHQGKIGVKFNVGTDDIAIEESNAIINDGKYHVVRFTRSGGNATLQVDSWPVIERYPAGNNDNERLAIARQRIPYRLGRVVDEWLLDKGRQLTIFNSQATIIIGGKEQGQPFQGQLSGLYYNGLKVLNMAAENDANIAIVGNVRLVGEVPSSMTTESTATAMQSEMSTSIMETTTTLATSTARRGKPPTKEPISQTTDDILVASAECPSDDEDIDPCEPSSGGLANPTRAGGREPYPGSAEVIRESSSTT

Compound: Cbln1 (from UniProt P23435)
- Kd [1]: 100 nM
- Kd [2]: 47 nM

Compound: N[C@H](CO)C(=O)O [D-serine]
- IC50 [3]: 310000 ± 160000 nM
